Assay [1] deals with T1, Human nectin-4 ECD-6His (TNT-175) (human, UniProt Q96NY8 32-349).
T1 construct: the entry holds the extracellular domain with the C-terminal 6His tag
T1 sequence: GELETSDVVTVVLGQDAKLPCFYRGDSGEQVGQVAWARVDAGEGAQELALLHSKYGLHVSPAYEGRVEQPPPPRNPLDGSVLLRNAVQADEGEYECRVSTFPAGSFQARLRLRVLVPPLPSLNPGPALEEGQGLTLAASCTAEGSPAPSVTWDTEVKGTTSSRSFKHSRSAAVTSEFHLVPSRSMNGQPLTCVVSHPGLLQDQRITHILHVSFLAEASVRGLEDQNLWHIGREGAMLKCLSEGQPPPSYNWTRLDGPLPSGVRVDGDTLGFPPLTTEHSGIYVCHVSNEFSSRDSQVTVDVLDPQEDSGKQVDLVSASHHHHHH
As to the kind of experiment: SPR Biacore 8K. The method, then: (§1) Further testing of select nectin-4 antibodies to human, mouse and cyno nectin-4. Additional assessment of the nectin-4 antibodies was performed to measure binding to human, mouse, and cynomolgus nectin-4. Biacore 8K (Cytiva, Marlborough, MA) was used to further characterize binding of four of the nectin-4 monoclonal antibodies.
(§2) All experiments were performed at 25° C. temperature and in HBS-EP+ run buffer (10 mM HEPES, pH 7.4, 150 mM NaCl, 3 mM EDTA, 0.05% Tween-20). The antibodies were captured or immobilized on a Biacore chip either through amine-coupling method on a CM5 or captured by ProteinA chip or captured by anti-mouse polyclonal antibody or anti-human polyclonal antibody. […] The data were processed and analyzed in Biacore Insight Evaluation Software using double-reference subtraction of the data and then fitted to a simple Langmuir binding model using global kinetic rate constants for association (Kₐ), dissociation (Kd), and Rₘₐₓ values per sample. Fit quality was determined by inspection of the residuals and of statistical T values and the equilibrium dissociation (or affinity) constant was deduced by the ratio of the kinetic rate constants. KD=Kd/Kₐ.

The target in assay [2] is T2, Human nectin-4-IgV-6His (TNT-252) (human, UniProt Q96NY8 32-147).
T2 construct: entry includes the 6His tag
T2 sequence: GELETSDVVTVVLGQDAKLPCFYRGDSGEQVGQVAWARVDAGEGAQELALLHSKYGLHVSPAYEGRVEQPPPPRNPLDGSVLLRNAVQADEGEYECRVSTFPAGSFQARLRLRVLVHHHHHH
As to the kind of experiment: SPR Biacore 8K. The procedure: as §1, §2

Assay [3] concerns the target T3, Cyno nectin-4 ECD-6His (TNT-255) (cynomolgus, UniProt Q96NY8 32-349 (human entry)).
T3 construct: entry includes the 6His tag
T3 chain: T1 sequence with V39A, I230V
As to the kind of experiment: SPR Biacore 8K. The procedure:
as §1, §2

The target of assay [4] is T1, Human nectin-4 ECD-6His (TNT-175). As to the kind of experiment: SPR Biacore 8K, mAb on protein A. The method, then: (§3) The running buffer was 10 mM HEPES, pH 7.4, 150 mM NaCl, 3 mM EDTA, 0.05% (v/v) Surfactant P20 (HBS-EP+). […] The nectin-4 analytes were injected in either single-cycle kinetics or multi-cycle kinetics mode at nominal starting concentrations of 300 nM or 900 nM with 3-fold serial dilutions. Association times were monitored for 120 s, and dissociation times were monitored 1800 s at 30 μL/min flow rate. The surfaces were regenerated with 10 mM glycine at pH1.7 or 75 mM phosphoric acid at pH1.6 for two pulses of 15 s at 30 μL/min flow rate.
(§4) The data were processed and analyzed with Biacore 8K Evaluation Software Version 3.0.12.15655 (Cytiva, Global Life Sciences Solutions USA LLC, Marlborough, MA). […] The responses from the nearest buffer blank injection were then subtracted from the reference subtracted data (2-1) to yield double-referenced data. These double-reference data were fit to a simple 1:1 Langmuir binding model with mass transport to determine the apparent association (ka) and dissociation rate constants (kd). The apparent equilibrium dissociation constant or affinity constant was then calculated based on their ratio as (KD=kd/ka).

The target in assay [5] is T4, Mouse nectin-4 ECD-6His (TNT-250) (mouse, UniProt Q8R007 31-347).
T4 construct: entry includes the 6His tag; also called mouse nectin-4-LCD
T4 sequence: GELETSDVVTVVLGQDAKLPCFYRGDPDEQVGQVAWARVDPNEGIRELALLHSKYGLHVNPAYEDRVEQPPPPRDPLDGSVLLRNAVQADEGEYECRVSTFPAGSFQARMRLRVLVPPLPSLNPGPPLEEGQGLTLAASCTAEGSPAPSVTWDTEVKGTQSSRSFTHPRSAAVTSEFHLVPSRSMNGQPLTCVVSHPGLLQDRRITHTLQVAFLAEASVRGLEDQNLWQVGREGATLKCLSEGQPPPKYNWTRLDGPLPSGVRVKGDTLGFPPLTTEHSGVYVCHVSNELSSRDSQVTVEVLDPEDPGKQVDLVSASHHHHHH
Nature of the assay: SPR Biacore 8K, mAb on protein A. The procedure:
as §3, §4

In assay [6] the target is T2, Human nectin-4-IgV-6His (TNT-252). As to the kind of experiment: SPR Biacore 8K, mAb on protein A. The method, then:
as §3, §4

Assay [7] deals with T3, Cyno nectin-4 ECD-6His (TNT-255). Nature of the assay: SPR Biacore 8K, mAb on protein A. The method, then:
as §3, §4

For assay [8], the target named is T4, Mouse nectin-4 ECD-6His (TNT-250). As to the kind of experiment: SPR Biacore 8K. The procedure:
as §1, §2

Assay [9] deals with T1, Human nectin-4 ECD-6His (TNT-175). Nature of the assay: SPR Biacore 8K, mAb on protein A. This is another data set of the same source.

The results in this text go back to patent US20240382610A1 (TALLAC THERAPEUTICS, published 2024).

Substitutions are numbered along the chain they refer to.

B1: TNT-212 (antibody, human IgG1, kappa)
heavy: not shown
light: DIQMTQSPSSVSASVGDRVTITCRASQGISGWLAWYQQKPGKAPKFLIYAASTLQSGVPSRFSGSGSGTDFTLTISSLQPEDFATYYCQQANSFPPTFGGGTKVEIKRTVAAPSVFIFPPSDEQLKSGTASVVCLLNNFYPREAKVQWKVDNALQSGNSQESVTEQDSKDSTYSLSSTLTLSKADYEKHKVYACEVTHQGLSSPVTKSFNRGEC
notes: also called TNT-154
As for B1, the Kd in assay [1] is 8 nM; in assay [2], 10 nM; in [3], 40 nM; in assay [4] it was 8.69 nM; in assay [6], 9.88 nM; in assay [7], 40.5 nM. Further, in assay [5], the binding result is recorded as “binds”.

B2: TNT-203 (antibody, human IgG1, kappa)
heavy: not shown
light: EIVLTQSPATLSLSPGERATLSCRASQSVSSYLAWYQQKPGQAPRLLIYDASNRATGIPARFSGSGSGTDFTLTISSLQAEDFATYYCQQSYSTRFGGGTKVEIKRTVAAPSVFIFPPSDEQLKSGTASVVCLLNNFYPREAKVQWKVDNALQSGNSQESVTEQDSKDSTYSLSSTLTLSKADYEKHKVYACEVTHQGLSSPVTKSFNRGEC
As to B2, the equilibrium dissociation constant (Kd) in assay [1] came out at 70 nM; in [8] it was 115 nM; in [2], 138 nM; in [3] it was 172 nM; in [4], 101 nM; in assay [5], 196 nM. Besides, the values for the equilibrium dissociation constant (Kd) in assay [6] and in [7] were 138 nM and 172 nM, respectively.

B3: TNT-207 (antibody, human IgG1, kappa)
heavy: not shown
light: DIQMTQSPSSLSASVGDRVTITCRASQGISNYLAWFQQKPGKAPKSLISAASSLQSGVPSRFSGSGSGTDFTLTISSLQPEDFATYYCLQHDSFPITFGGGTKLEIKRTVAAPSVFIFPPSDEQLKSGTASVVCLLNNFYPREAKVQWKVDNALQSGNSQESVTEQDSKDSTYSLSSTLTLSKADYEKHKVYACEVTHQGLSSPVTKSFNRGEC
Turning to B3, the Kd in [1] is 1.5 nM; in assay [8], 6 nM; in [2] it was 1.8 nM; in [3], 4.2 nM; in [9], 1 nM; in assay [4] it was 1.37 nM. Besides, the dissociation constant (Kd) stood at 5.07 nM in [5], 1.77 nM in [6] and 4.19 nM in assay [7].
